According to paper doi:10.1101/2021.01.08.425619 (bioRxiv, 2021):
Where two headings read alike, the source gives them in different places.

B1: Panx peptide residues 455-466 (Panx1), LC8 binding site #1 (peptide)
peptide: TLYKNAATQTER
B2: Drosophila melanogaster LC8 (residues 1-89), co-expressed with Panx peptides (natural protein)
chain: MSDRKAVIKNADMSEEMQQDAVDCATQALEKYNIEKDIAAYIKKEFDKKYNPTWHCIVGRNFGSYVTHETRHFIYFYLGQVAILLFKSG
B3: recombinant SFiNX consisting of Panx[263-541], Nxf2[541-841], Nxt1, and LC8 (complex)
chain 1: ASSQNESSKERKLRDTELDYVPVRPDEHFIRPIKFSNLIERRPPQVEFNTVNLSKADKRSLAVARAELVLEQIQQKANKEEPPEFHMVDTICKLPVNESFRNQDCFENPSPICNNMNVVYKFNSTPGTRIDLSKWGLETVPEATKRLLRLLGIDVARLKELQSTVKPSQRILKLKKEQLEQGLAPTEEQETATLYKNAATQTERRTATRDAGTQVRLESKLNGAFWQNPHFDPMNLTQHQSNVMLALQEIYQTLPSATMAVKLSRALAPALAIIKGRQP
chain 2: LPSEYVRAVKEVFPQLTTLDGVDLQTNPGQSLQKNFLCDTGAYELVGAFLENYLREFENDEFRHNLYKYYSENSIFTLTCNYNVVQNHQTPKILQRLSKYNRHARNLRNKDYSKASDGVFFGCTYIVEILLQLPRVTHDFHSLQTDVMHYNGKGAVIYVAGLLRDEPPSTRNGHGSKTDIGGVLLGFSRQFVVTFDEANLGLGKRARRLKIANERLHITNPSKTAIRNAFSVNFPDPSERQAEEDSLDVKDHKLLLFQEVTGLISTWVTSIVEEADWDFERALKLFIQKNADHEIPDLAFA
chain 3: […]
chain 4: B2 chain
B4: His6-LC8, subunit of recombinant SFiNX (natural protein)
chain: B2 chain
B5: Nxf2[541-841], subunit of recombinant SFiNX (domain or fragment)
chain: B3 chain 2
B6: Panx peptide residues 467-480 (Panx2), LC8 binding site #2 (peptide)
peptide: RTATRDAGTQVRLE
B7: Panx[263-541], subunit of recombinant SFiNX (domain or fragment)
chain: B3 chain 1
B8: Panx peptide residues 455-480 (Panx1+2), both LC8 binding sites (peptide)
peptide: TLYKNAATQTERRTATRDAGTQVRLE

How the values were obtained:
[1] = biological target: B2; test: SEC-MALS
[2] = biological target: Drosophila melanogaster LC8 (residues 1-89), expressed in isolation for ITC (Drosophila melanogaster, UniProt Q24117 1-89); test: ITC
SEC-MALS [3] = biological target: the molecule itself; test: SEC-MALS
SEC-MALS [4] = biological target: the molecule itself; test: SEC-MALS; remark: listed apart in the source
[5] = biological target: B7; test: SEC-MALS
[6] = biological target: Nxt1, subunit of recombinant SFiNX (Drosophila, UniProt Q9V3H8 1-133); test: SEC-MALS
[7] = biological target: B5; test: SEC-MALS

Binder: B1
- stoichiometry N [1]: 2 Panx peptides per one LC8 homodimer
- Kd [2]: ~75 nM

Binder: B2
- stoichiometry N (SEC-MALS [3]): 2

Binder: B3
- stoichiometry N (SEC-MALS [4]): 2

Binder: B4
- binding result [5]: binds

Binder: B5
- binding result [6]: binds

Binder: B6
- stoichiometry N [1]: 2 Panx peptides per one LC8 homodimer
- Kd [2]: ~140 nM

Binder: B7
- binding result [7]: binds

Binder: B8
- stoichiometry N [1]: 2 Panx peptides per two LC8 homodimers
